Reference: patent US20240269292A1
Non-standard residues stand in square brackets, D forms with d. No end group written: not given here. *: point of attachment. Dmt = Cc1cc(O)cc(C)c1C[C@H](N)C(=O)O; stearyl ester = CCCCCCCCCCCCCCCCCCO*

Legend:
[1] = type: physicochemical; conditions: EY005-stearyl solubilized in methyl laurate, incubated 1 hour, HPLC
Protocol: Kd values were calculated as [unbound]/[bound] fraction prodrug under each condition.

Albumin [2] = molecular target: Albumin (Homo sapiens, UniProt P02768); experiment: Fluorescence microscopy of complexation of FITC-labeled drug with particulates; type: binding
Text: (§1) As described herein, formation of MTT-prodrug-complex particulates can be verified experimentally by direct visualization. For example, the MTT-prodrug EY005-stearyl was fluorescently labeled with fluorescein isothiocyanate (FITC) and admixed with different complexation agents. The resultant mixture was then visualized under direct fluorescence microscopy. […] In contrast, FITC-labeled EY005-stearyl was not observed to form drug-complex particulates with silica microbeads (see FIG. 24A-24D), indicating the process of complexation and drug-complex particulate formation is highly dependent on favorable noncovalent interaction between drug and complexation agent.
(§2) Further, this noncovalent interaction is specifically mediated by the conjugation moiety of the MTT-prodrug. FITC-labeled EY005-stearyl that had been admixed with complexation agent was treated with an aqueous solution of carboxyesterase (0.1 μg/mL) to hydrolyze the ester bond of the prodrug, releasing the fluorescent peptide.
as §1, with “(FIG. 24C),” for “(see FIG. 24A-24D),”

[3] = as above; type: physicochemical; conditions: for Fluorescence after carboxyesterase: carboxyesterase 0.1 μg/mL
Text: as §1, §2
as §1, with “(FIG. 24C),” for “(see FIG. 24A-24D),”

[4] = system: T1, EY005-stearyl prodrug (H-d-Arg-DMT-Lys-Phe(-O)-stearyl)
T1 sequence: RYKF

Albumin [5] = experiment: pull-down by centrifugation in methyl laurate after 1 hour incubation, HPLC quantification; unitless ratio
Albumin [6] = experiment: pull-down by centrifugation in methyl laurate after 1 hour incubation, HPLC quantification

Q: For OC[C@H]1O[C@@H]2O[C@H]3[C@H](O)[C@@H](O)[C@@H](O[C@H]4[C@H](O)[C@@H](O)[C@@H](O[C@H]5[C@H](O)[C@@H](O)[C@@H](O[C@H]6[C@H](O)[C@@H](O)[C@@H](O[C@H]7[C@H](O)[C@@H](O)[C@@H](O[C@H]8[C@H](O)[C@@H](O)[C@@H](O[C@H]9[C@H](O)[C@@H](O)[C@@H](O[C@H]1[C@H](O)[C@H]2O)O[C@@H]9CO)O[C@@H]8CO)O[C@@H]7CO)O[C@@H]6CO)O[C@@H]5CO)O[C@@H]4CO)O[C@@H]3CO [Cyclodextrin gamma], which “μg EY005-stearyl complexed per mg complexation agent” value [1] is on record?
A: 2.3 μg per mg complexation agent

Q: What does the source list for “FITC-labeled EY005 native peptide: EY005 native peptide labeled with fluorescein isothiocyanate ([dR][Dmt]KF-OH; also: FITC label, site not given here)”?
A: Complexation by fluorescence (Albumin [2]): minimal complexation; Complexation by fluorescence ([3]; silica microbeads): interacted with silica microbeads creating fluorescent round figures

Q: For “FITC-labeled EY005-stearyl prodrug: MTT-prodrug EY005-stearyl fluorescently labeled with fluorescein isothiocyanate (FITC) ([dR][Dmt]KF-{stearyl ester}; also: FITC label, site not given here)”, which Complexation by fluorescence (Albumin [2]) is on record?
A: bright fluorescence

Q: What about the Fluorescence after carboxyesterase (Albumin [2]; carboxyesterase 0.1 μg/mL) of the same molecule?
A: reduced levels of fluorescence

Q: And the Fluorescence after carboxyesterase ([3]; cyclodextrin)?
A: reduced levels of fluorescence

Q: What about the Fluorescence after carboxyesterase ([3]; lecithin) of the same molecule?
A: reduced levels of fluorescence

Q: And the Fluorescence after carboxyesterase ([3]; magnesium stearate)?
A: reduced levels of fluorescence

Q: And the Complexation by fluorescence ([3]; silica microbeads)?
A: no evidence of complexation

Q: And the Fluorescence after carboxyesterase ([3]; silica microbeads)?
A: did not alter extremely low levels of fluorescence

Q: With carboxyesterase as the molecule, how does the “cleavage of the prodrug ester bond (HPLC)” value [4] read?
A: Incubation of EY005-stearyl with carboxyesterase produced rapid cleavage of the prodrug ester bond, releasing EY005

Q: Which Calculated Kd ([unbound]/[bound] fraction of prodrug) (Albumin [5]) does the source give for H-[dR][Dmt]KF-{stearyl ester} (also: DMT isomer not given here) [EY005-stearyl prodrug (H-d-Arg-DMT-Lys-Phe(-O)-stearyl)] here?
A: 1.34

Q: What about the µg EY005-stearyl complexed per mg complexation agent (binding capacity) (µg per mg complexation agent) (Albumin [6]) of the same molecule?
A: 4.5
